Here are results for three molecules from US20260015418A1 (ABL BIO, published 2026).

In assay [1] the target is T1, human ROR1 protein (ROR1-His; Sino Biological, Catalog #13968-H08H) (human, UniProt Q01973 30-406).
T1 construct: extracellular domain; Bought protein; also called human recombinant ROR1 protein
Put plainly: ELISA, plate coated with ROR1-His (1 ug/ml), bound antibody detected with HRP-conjugated anti-Fab polyclonal antibody, OD at 450 nm; lower graph and table. On the procedure:
(§1) The binding affinity of the anti-ROR1 antibody-antigen was evaluated using an ELISA-based solution binding assay. Specifically, 96-well microtiter plates (Nunc-Immuno Plates, NUNC) were coated with ROR1 protein (ROR1-His; sino biological, Catalog #13968-H08H) at a concentration of 1 μg/ml in PBS solution at 4° C. for 16 hours, and non-specific binding sites were blocked with 1% (v/v) BSA (bovine serum albumin) for 2 hours.
(§2) Subsequently, on the 96-well microtiter plates, anti-ROR1 antibodies at concentrations stated in FIGS. 1a to 1c were added to the microtiter plates, and their binding capabilities were analyzed by ELISA as follows. Specifically, after incubating at 37° C. for 2 hours, the plates were washed five times with PBS containing 0.05% (v/v) Tween 20, then the HRP-conjugated Fab polyclonal antibody reagent (Pierce, Catalog #31414) was diluted at a 1:30,000 ratio and added to the washed microtiter plates, then reacted for 1 hour at 37° C., then detected the bound anti-ROR1 antibodies. After reaction, the color was developed using TMB (tetramethylbenzidine, Sigma, T0440). The enzymatic reaction was stopped with 0.5 mol/L sulfuric acid, and the absorbance was read at 450 nm and 650 nm using a microplate reader (Molecular Devices).
In general terms: An ELISA detects its analyte on a solid surface through an enzyme-linked reagent.

Assay [2] has as its target T1, human ROR1 protein (ROR1-His; Sino …). Nature of the assay: SACE ELISA on human ROR1-His; antibody stored 2 weeks at 4°C; BA6 IgG (WT), stored at 4° C. The protocol: as §1
as §2, with “Devices). […]” for “Devices).”

For assay [3] the target is unchanged. Put plainly: SACE ELISA on human ROR1-His; antibody stored 2 weeks at 37°C. The protocol: as §1
as §2, with “Devices). […]” for “Devices).”

Assay [4] has the same target. Put plainly: ELISA, plate coated with ROR1-His (1 ug/ml), bound antibody detected with HRP-conjugated anti-Fab polyclonal antibody, OD at 450 nm; upper graph and table. The protocol: as §1, §2
The target is the same in assay [5]. Nature of the assay: SACE ELISA on human ROR1-His. On the procedure: as §1
as §2, with “Devices). […]” for “Devices).”

Assay [6] shares this target. Nature of the assay: ELISA, plate coated with ROR1-His (1 ug/ml), bound antibody detected with HRP-conjugated anti-Fab polyclonal antibody, OD at 450 nm; lower graph and table. The protocol: as §1, §2
This is another data set of the same source.

For assay [7] the target is unchanged. Put plainly: ELISA, plate coated with ROR1-His (1 ug/ml), bound antibody detected with HRP-conjugated anti-Fab polyclonal antibody, OD at 450 nm; upper graph and table. The protocol:
as §1, §2
This is another data set of the same source.

Assay [8] shares this target. Put plainly: ELISA, plate coated with ROR1-His (1 ug/ml), bound antibody detected with HRP-conjugated anti-Fab polyclonal antibody, OD at 450 nm. The protocol: as §1, §2
Assay [9] deals with T2, human B7-H3 on CHO-huROR1-huB7-H3 cells (human, UniProt Q5ZPR3 29-534).
T2 construct: whole, on cells; also called cell surface B7-H3
T2 sequence (looked up): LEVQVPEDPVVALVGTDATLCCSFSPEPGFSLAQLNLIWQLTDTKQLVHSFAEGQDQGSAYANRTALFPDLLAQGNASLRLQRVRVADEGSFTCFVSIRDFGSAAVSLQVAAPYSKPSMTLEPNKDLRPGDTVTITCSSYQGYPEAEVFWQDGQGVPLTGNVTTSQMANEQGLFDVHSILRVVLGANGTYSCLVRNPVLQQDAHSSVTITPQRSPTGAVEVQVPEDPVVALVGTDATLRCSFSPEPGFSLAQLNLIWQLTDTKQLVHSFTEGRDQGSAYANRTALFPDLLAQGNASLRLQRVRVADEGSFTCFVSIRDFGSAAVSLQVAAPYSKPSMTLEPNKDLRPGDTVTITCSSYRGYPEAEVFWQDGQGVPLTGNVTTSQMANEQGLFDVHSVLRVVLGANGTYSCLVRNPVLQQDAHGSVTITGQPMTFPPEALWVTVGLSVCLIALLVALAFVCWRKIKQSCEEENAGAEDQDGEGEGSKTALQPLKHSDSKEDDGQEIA
Put plainly: flow cytometry on CHO-huROR1-huB7-H3 cells, FITC anti-human IgG, MFI over secondary antibody only. The source says: (§3) To evaluate the cell-binding ability of the anti-ROR1/B7-H3 bispecific antibody, cells expressing both ROR1 and B7-H3 were used to compare the cell-binding ability of the bispecific antibody with that of the monospecific antibodies.
(§4) As a cell line for the comparison of cell-binding ability, CHO-huROR1-huB7-H3 cell line (obtained by transfecting the ROR1-CHO recombinant cell line (BPS Bioscience) with the human B7-H3 gene (Origene) and selecting for the desired gene-inserted single cells using G418), which stably transfected the human ROR1 and human B7-H3 gene to artificially overexpress both human ROR1 and human B7-H3 proteins were used, and analysis was performed using a flow cytometer (LSRFortessa X-20, BD Biosciences). Specifically, after dissociating and washing the overexpressing cell line with PBS, the cell number was counted, and the cells were seeded at a density of 2×10⁵ cells per well into a V-bottom 96-well plate (96 Well Plate-RV, Bioneer, 910D09). Antibodies diluted 4-fold starting from 100 nM in 1% BSA solution were added at 100 μL per well to the centrifuged cells and incubated at 4° C. for 1 hour. […] After the reaction, the cells were washed twice with the same buffer, resuspended in 100 μL of PBS, and analyzed using a FACS instrument. A total of 10,000 cells were detected per measurement, and the data was analyzed using FlowJo software. […]
A general note: A flow cytometer gives signals particle by particle.

The target in assay [10] is T3, human ROR1 on cells (NCI-N87, CHOK1-hROR1, AGS, CHO-huROR1-huB7-H3) (human, UniProt Q01973 30-937).
T3 construct: whole, on cells; also called cell surface ROR1
The description is as above.
Text: as §3, §4

In assay [11] the target is T1, human ROR1 protein (ROR1-His; Sino …). Nature of the assay: SACE ELISA on human ROR1-His; antibody stored 2 weeks at 4°C. On the procedure: as §1
as §2, with “Devices). […]” for “Devices).”

Where a chain is given by its changes, count along the chain named. Names and notes keep the numbering of the source. Values joined by “and” are separate entries in the source; they are usually repeats but may differ in a detail not shown here. Identical values can stand only once.

B1: BA6 antibody (WT) (antibody, V domains shown)
VH: EVQLLESGGGLVQPGGSLRLSCAASGFTFSNYDMSWVRQAPGKGLEWVSAIYHSGSSKYYADSVKGRFTISRDNSKNTLYLQMNSLRAEDTAVYYCARGGNGAWDTGFDYWGQGTLVTVSS
VL: QSVLTQPPSASGTPGQRVTISCSGSSSNIGSNDVSWYQQLPGTAPKLLIYYDNNRPSGVPDRFSGSKSGTSASLAISGLRSEDEADYYCGAWDDSLSGYVFGGGTKLTVL
notes: Anti-ROR1 antibody from WO2019-225992 A1, said to be based on IgG1; only the variable domains are tied to the monospecific IgG; also called BA6 IgG (WT); parental clone
On to B1, for which the EC50 (in general, the concentration needed to bring the measured effect to its halfway point) was found to be 0.215 nM in assay [1]; 0.217 nM in assay [2]; 0.261 nM in [3]; 0.707 nM in assay [4]; 0.293 nM in assay [6]; 1 nM in assay [7]. In addition, the 50% effective concentration (EC50) in assay [8] came out at 0.293 nM. For the same molecule, the “Ratio (EC50, 4°C sample against 37°C sample)” value in assay [5] came out at 83.1%.

B2: B5 (antibody, V domains shown)
VH: EVQLLESGGGLVQPGGSLRLSCAASGFTFSDYAMSWVRQAPGKGLEWVSSISSGSGSIYYADSVKGRFTISRDNSKNTLYLQMNSLRAEDTAVYYCAKNLIPLDYWGQGTLVTVSS
VL: B1 VL with D33A, D52N, N53S, N54H, A91S, D94A, S97N, G98A
notes: also called anti-B7-H3 monospecific antibody B5; anti-B7-H3 antibody clone B5 (WO2019-226017 A1)
Consider B2, for which the EC50 (read off the curve) (commonly the concentration needed to bring the measured effect to its halfway point) in assay [9] was about 1 nM.

B3: BA6M11 anti-ROR1 antibody (IgG) (antibody, V domains shown)
VH: B1 VH with N101S
VL: B1 VL with D52E
notes: IgG form; also called BA6 IgG (M11); double mutant D51E (LC)+N97S (HC)
For B3, the EC50 in [1] is 0.144 nM and 0.133 nM; in [3], 0.129 nM; in assay [11] it was 0.166 nM. In assay [10], the “EC50 (read off the curve)” value was about 0.7 nM. Moreover, the “Ratio (EC50, 4°C sample against 37°C sample)” value in assay [5] is 129%.
